According to the Immune Epitope Database (IEDB):

What was measured:
HLA-B*57:01 [1] = assay: IEDB peptide-MHC binding, purified MHC/competitive/radioactivity; filed as Kd, often an IC50 or EC50 that approximates it; ≥ and ≤ were set here for values at or beyond the usual limits of such assays
HLA-A*31:01 = assay: IEDB peptide-MHC binding, purified MHC/direct/fluorescence; filed as Kd, often an IC50 or EC50 that approximates it; ≥ and ≤ were set here for values at or beyond the usual limits of such assays
HLA-B*15:01 = assay: as above
HLA-B*15:09 = assay: as above
HLA-A*02:01 = assay: as above
HLA-B*07:02 = assay: as above
HLA-A*69:01 = assay: as above
HLA-B*46:01 [2] = assay: as above
HLA-B*58:01 [3] = assay: as above
HLA-B*27:05 = assay: as above
HLA-B*44:02 = assay: as above
HLA-B*08:01 = assay: as above
HLA-A*03:01 = assay: as above
HLA-B*40:01 = assay: as above
HLA-A*01:01 [4] = assay: as above
HLA-B*58:01 [5] = assay: IEDB peptide-MHC binding, purified MHC/competitive/radioactivity; filed as Kd, often an IC50 or EC50 that approximates it; ≥ and ≤ were set here for values at or beyond the usual limits of such assays
HLA-A*32:01 = assay: as above; conditions: source organism: Dengue virus 2 Jamaica/1409/1983
HLA-A*30:01 [6] = assay: IEDB peptide-MHC binding, purified MHC/competitive/fluorescence; filed as Kd, often an IC50 or EC50 that approximates it; ≥ and ≤ were set here for values at or beyond the usual limits of such assays; conditions: source organism: Human immunodeficiency virus 1
HLA-A*02:03 [7] = assay: as above; conditions: source organism: Human immunodeficiency virus 1
HLA-B*39:01 = assay: as above
HLA-A*02:03 [8] = assay: IEDB peptide-MHC binding, purified MHC/direct/fluorescence; filed as Kd, often an IC50 or EC50 that approximates it; ≥ and ≤ were set here for values at or beyond the usual limits of such assays; conditions: source organism: Orthohantavirus negraense
HLA-A*26:01 [9] = assay: as above
HLA-B*18:01 [10] = assay: IEDB peptide-MHC binding, purified MHC/competitive/fluorescence; filed as Kd, often an IC50 or EC50 that approximates it; ≥ and ≤ were set here for values at or beyond the usual limits of such assays; conditions: source organism: Orthohantavirus negraense
HLA-B*51:01 [11] = assay: as above; conditions: source organism: Orthohantavirus negraense
HLA-B*27:03 = assay: as above; conditions: source organism: Orthohantavirus negraense
HLA-B*46:01 [12] = assay: as above; conditions: source organism: Orthohantavirus negraense
HLA-B*15:17 [13] = assay: as above; conditions: source organism: Orthohantavirus negraense
HLA-B*57:01 [14] = assay: as above; conditions: source organism: Orthohantavirus negraense
HLA-A*68:02 = assay: IEDB peptide-MHC binding, purified MHC/competitive/radioactivity; filed as Kd, often an IC50 or EC50 that approximates it; ≥ and ≤ were set here for values at or beyond the usual limits of such assays; conditions: source organism: Dengue virus 1 Brazil/97-11/1997
HLA-A*26:01 [15] = assay: as above; conditions: source organism: Dengue virus 1 Brazil/97-11/1997
HLA-A*01:01 [16] = assay: as above; conditions: source organism: Dengue virus 1 Brazil/97-11/1997
HLA-A*11:01 = assay: IEDB peptide-MHC binding, purified MHC/direct/fluorescence; filed as Kd, often an IC50 or EC50 that approximates it; ≥ and ≤ were set here for values at or beyond the usual limits of such assays
HLA-B*45:06 = assay: IEDB peptide-MHC binding, purified MHC/competitive/fluorescence; filed as Kd, often an IC50 or EC50 that approximates it; ≥ and ≤ were set here for values at or beyond the usual limits of such assays
HLA-B*15:42 = assay: as above
HLA-B*83:01 = assay: as above
HLA-A*29:02 = assay: IEDB peptide-MHC binding, purified MHC/direct/fluorescence; filed as Kd, often an IC50 or EC50 that approximates it; ≥ and ≤ were set here for values at or beyond the usual limits of such assays; conditions: source organism: West Nile virus
HLA-B*57:01 [17] = assay: as above
HLA-A*30:01 [18] = assay: IEDB peptide-MHC binding, purified MHC/competitive/radioactivity; filed as Kd, often an IC50 or EC50 that approximates it; ≥ and ≤ were set here for values at or beyond the usual limits of such assays; conditions: source organism: Dengue virus 1 Brazil/97-11/1997
HLA-B*18:01 [19] = assay: IEDB peptide-MHC binding, purified MHC/direct/fluorescence; filed as Kd, often an IC50 or EC50 that approximates it; ≥ and ≤ were set here for values at or beyond the usual limits of such assays; conditions: source organism: Mycobacterium tuberculosis
HLA-B*48:01 = assay: as above; conditions: source organism: Mycobacterium tuberculosis
HLA-B*51:01 [20] = assay: as above; conditions: source organism: Mycobacterium tuberculosis
HLA-B*15:17 [21] = assay: as above; conditions: source organism: Mycobacterium tuberculosis
[22] = source organism: Dengue virus 3 Martinique/1243/1999
[23] = source organism: Influenza A virus (A/camel/Mongolia/1982(H1N1))
[24] = source organism: Dengue virus 2 Jamaica/1409/1983
[25] = source organism: Orthohantavirus negraense
[26] = source organism: Dengue virus 1 Brazil/97-11/1997
[27] = source organism: Corynebacterium glutamicum
[28] = source organism: Corynebacterium glutamicum ATCC 13032
[29] = source organism: Dengue virus 1 Singapore/S275/1990
[30] = source organism: West Nile virus
[31] = source organism: Mycobacterium tuberculosis
[32] = source organism: Mycobacterium tuberculosis C

Work on PTAGVLARW yielded a Kd (HLA-B*57:01 [1]; [22]) of 0.0297 µM.
HIPEVCLKW gave a Kd (HLA-A*31:01; [23]) of no less than 20 µM, a Kd (HLA-B*15:01; [23]) of no less than 20 µM and a Kd (HLA-B*15:09; source organism: Influenza A virus H3N2) of no less than 20 µM. The Kd (HLA-A*02:01; [23]) was no less than 20 µM, the Kd (HLA-B*07:02; [23]) was no less than 20 µM and the Kd (HLA-A*69:01; [23]) was no less than 20 µM. It also gave a Kd (HLA-B*46:01 [2]; [23]) of no less than 20 µM, a Kd (HLA-B*58:01 [3]; [23]) of 0.121 µM and a Kd (HLA-B*27:05; [23]) of no less than 20 µM. For the same sequence, the Kd (HLA-B*44:02; [23]) was no less than 20 µM, the Kd (HLA-B*08:01; [23]) was no less than 20 µM and the Kd (HLA-A*03:01; [23]) was no less than 20 µM. For the same sequence, the Kd (HLA-B*40:01; [23]) was no less than 20 µM and the Kd (HLA-A*01:01 [4]; [23]) was no less than 20 µM.
With TASILLWYAQ the Kd (HLA-B*58:01 [5]; [24]) was 1.01 µM, the Kd (HLA-B*57:01 [1]; [24]) was 0.029 µM and the Kd (HLA-A*32:01) was no less than 33.1 µM.
With EKLKSLYNTV the Kd (HLA-A*30:01 [6]) was 0.175 µM, the Kd (HLA-A*02:03 [7]) was 0.643 µM and the Kd (HLA-B*39:01; source organism: Human immunodeficiency virus 1) was 2.81 µM.
In the case of NIYETEFFM, the Kd (HLA-A*02:03 [8]) is reported as no less than 20 µM, the Kd (HLA-A*26:01 [9]; [25]) is reported as 1.11 µM and the Kd (HLA-A*03:01; [25]) is reported as no less than 20 µM. The Kd (HLA-B*18:01 [10]) was no less than 20 µM, the Kd (HLA-B*51:01 [11]) was no less than 20 µM and the Kd (HLA-B*27:03) was no less than 20 µM. The Kd (HLA-B*46:01 [12]) was no less than 20 µM, the Kd (HLA-B*15:17 [13]) was no less than 20 µM and the Kd (HLA-B*39:01; [25]) was no less than 20 µM. For the same sequence, the Kd (HLA-B*57:01 [14]) was no less than 20 µM.
In the case of KSIEDNPEI, the Kd (HLA-B*58:01 [5]; [24]) is reported as 0.00548 µM.
VASEGIKYTD showed a Kd (HLA-B*58:01 [5]; [22]) of 0.34 µM and a Kd (HLA-B*57:01 [1]; [22]) of 5.16 µM.
TTSGTYVSAI was tested, and the Kd (HLA-A*68:02) was 0.0205 µM, the Kd (HLA-A*26:01 [15]) was 17 µM and the Kd (HLA-B*57:01 [1]; [26]) was 0.179 µM. The Kd (HLA-A*01:01 [16]) was no less than 70.4 µM.
With GAVFQEEQGW the Kd (HLA-B*58:01 [5]; source organism: Dengue virus 4 Philippines/H241/1956) was 0.0185 µM.
AEHDPWWAV gave a Kd (HLA-A*31:01; [27]) of no less than 20 µM, a Kd (HLA-B*15:01; [27]) of no less than 20 µM and a Kd (HLA-A*02:01; [27]) of no less than 20 µM. The Kd (HLA-B*07:02; [27]) was 8.99 µM, the Kd (HLA-A*69:01; [27]) was no less than 20 µM and the Kd (HLA-B*58:01 [3]; [27]) was no less than 20 µM. The Kd (HLA-A*11:01; [27]) was no less than 20 µM, the Kd (HLA-B*27:05; [27]) was no less than 20 µM and the Kd (HLA-A*26:01 [9]; [27]) was no less than 20 µM. The Kd (HLA-B*08:01; [27]) was no less than 20 µM, the Kd (HLA-A*03:01; [27]) was no less than 20 µM and the Kd (HLA-B*40:01; [27]) was 0.0549 µM. The Kd (HLA-A*01:01 [4]; [27]) was no less than 20 µM, the Kd (HLA-B*45:06; [28]) was no less than 5 µM and the Kd (HLA-B*15:42; [28]) was no less than 5 µM. For the same sequence, the Kd (HLA-B*83:01; [28]) was no less than 5 µM.
RAVHADMGYW gave a Kd (HLA-B*58:01 [5]; [24]) of 0.000235 µM.
STSLSMTCIA gave a Kd (HLA-B*57:01 [1]; [26]) of 2.08 µM.
Sequence IASAIVLEFF has a Kd (HLA-B*58:01 [5]; [22]) of 0.021 µM and a Kd (HLA-B*57:01 [1]; [22]) of 0.883 µM.
Sequence NASDRMGMGT has a Kd (HLA-B*58:01 [5]; [29]) of 5.12 µM and a Kd (HLA-B*57:01 [1]; [29]) of 0.652 µM.
For GRGPIRFVL, the Kd (HLA-A*31:01; [30]) was no less than 20 µM, the Kd (HLA-A*29:02) was no less than 20 µM and the Kd (HLA-B*15:01; [30]) was no less than 20 µM. For the same sequence, the Kd (HLA-B*15:09; [30]) was no less than 20 µM, the Kd (HLA-A*02:01; [30]) was no less than 20 µM and the Kd (HLA-B*07:02; [30]) was no less than 20 µM. The Kd (HLA-A*69:01; [30]) was no less than 20 µM, the Kd (HLA-B*46:01 [2]; [30]) was no less than 20 µM and the Kd (HLA-B*58:01 [3]; [30]) was no less than 20 µM. For the same sequence, the Kd (HLA-A*11:01; [30]) was no less than 20 µM, the Kd (HLA-B*57:01 [17]; [30]) was no less than 20 µM and the Kd (HLA-B*44:02; [30]) was no less than 20 µM. It also gave a Kd (HLA-A*03:01; [30]) of no less than 20 µM and a Kd (HLA-A*01:01 [4]; [30]) of no less than 20 µM.
Sequence KVRKDIPQW has a Kd (HLA-A*30:01 [18]) of 0.254 µM, a Kd (HLA-B*58:01 [5]; [26]) of 0.00597 µM and a Kd (HLA-B*57:01 [1]; [26]) of 0.0355 µM.
APRGFRAAF was tested, and the Kd (HLA-A*31:01; [31]) was no less than 20 µM, the Kd (HLA-B*18:01 [19]) was no less than 20 µM and the Kd (HLA-B*48:01) was no less than 20 µM. It also gave a Kd (HLA-B*15:01; [31]) of no less than 20 µM, a Kd (HLA-B*51:01 [20]) of no less than 20 µM and a Kd (HLA-A*02:01; [31]) of no less than 20 µM. It also gave a Kd (HLA-A*69:01; [31]) of no less than 20 µM, a Kd (HLA-B*46:01 [2]; [31]) of no less than 20 µM and a Kd (HLA-B*58:01 [3]; [31]) of no less than 20 µM. It also gave a Kd (HLA-A*11:01; [31]) of no less than 20 µM, a Kd (HLA-B*27:05; [31]) of no less than 20 µM and a Kd (HLA-B*15:17 [21]) of 5.45 µM. It also gave a Kd (HLA-B*57:01 [17]; [31]) of no less than 20 µM, a Kd (HLA-B*08:01; source organism: Mycobacterium tuberculosis str. Haarlem) of 0.1 µM and a Kd (HLA-A*03:01; [31]) of no less than 20 µM. For the same sequence, the Kd (HLA-B*40:01; [31]) was no less than 20 µM, the Kd (HLA-A*01:01 [4]; [31]) was no less than 20 µM and the Kd (HLA-B*45:06; [32]) was no less than 5 µM. It also gave a Kd (HLA-B*15:42; [32]) of no less than 5 µM and a Kd (HLA-B*83:01; [32]) of 0.038 µM.
